To fix the notation:
B1: 68, 70, 72 variant of humanized anti-HER2 antibody (Fab) (Fab, V domains shown)
VH: EVQLVESGGGLVQPGGSLRLSCAASGFNIKDTYIHWVRQAPGKGLEWVARIYPTNGYTRYADSVKGRFRIRARTSKNTAYLQMNSLRAEDTAVYYCSRWGGDGFYAMDYWGQGTLVTVSS
VL: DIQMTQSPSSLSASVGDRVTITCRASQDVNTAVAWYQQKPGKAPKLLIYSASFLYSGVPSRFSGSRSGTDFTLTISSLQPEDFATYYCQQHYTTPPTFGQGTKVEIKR
B2: 72, 77, 79 variant of humanized anti-HER2 antibody (Fab) (Fab, V domains shown)
VH: B1 VH with R69T, R71S, T78R, Y80R
VL: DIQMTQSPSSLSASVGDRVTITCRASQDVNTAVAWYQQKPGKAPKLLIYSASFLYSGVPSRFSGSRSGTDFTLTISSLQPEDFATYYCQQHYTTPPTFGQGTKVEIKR
notes: also called Heavy chain 72, 77, 79 variant
B3: 79, 81, 82A variant of humanized anti-HER2 antibody (Fab) (Fab, V domains shown)
VH: B1 VH with R69T, R71S, R73D, Y80R, Q82R, N84R
VL: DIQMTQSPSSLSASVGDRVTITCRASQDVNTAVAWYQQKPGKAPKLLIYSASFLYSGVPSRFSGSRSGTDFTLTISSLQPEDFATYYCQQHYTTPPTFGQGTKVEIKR
B4: 84, 85, 87 variant of humanized anti-HER2 antibody (Fab) (Fab, V domains shown)
VH: B1 VH with R69T, R71S, R73D, A88R, E89R, T91R
VL: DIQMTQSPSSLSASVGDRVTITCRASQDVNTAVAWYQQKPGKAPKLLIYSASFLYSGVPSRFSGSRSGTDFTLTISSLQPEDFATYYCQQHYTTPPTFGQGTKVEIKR
B5: 74, 75, 77 variant of humanized anti-HER2 antibody (Fab) (Fab, V domains shown)
VH: B1 VH with R69T, R71S, R73D, S75R, K76R, T78R
VL: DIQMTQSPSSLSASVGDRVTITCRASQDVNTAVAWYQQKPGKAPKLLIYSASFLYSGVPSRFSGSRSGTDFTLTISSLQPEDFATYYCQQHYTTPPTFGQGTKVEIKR
B6: light chain 63, 65, 67/heavy chain 82B, 83, 84 variant of the anti-HER2 antibody (Fab, V domains shown)
VH: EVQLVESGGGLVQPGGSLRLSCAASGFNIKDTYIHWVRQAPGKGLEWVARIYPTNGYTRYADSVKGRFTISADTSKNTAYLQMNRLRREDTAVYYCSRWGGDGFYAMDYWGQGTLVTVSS
VL: DIQMTQSPSSLSASVGDRVTITCRASQDVNTAVAWYQQKPGKAPKLLIYSASFLYSGVPSRFRGRRRGTDFTLTISSLQPEDFATYYCQQHYTTPPTFGQGTKVEIKR
B7: light chain 63, 65, 67/heavy chain 72, 77, 79 variant of the anti-HER2 antibody (Fab, V domains shown)
VH: B1 VH with R69T, R71S, T78R, Y80R
VL: B6 VL

As usually defined, the Kd is the equilibrium constant for the complex coming apart.

Residue numbers refer to the chain shown, from its start.

The first experiment concerns the target T1, HER2 (UniProt P04626 23-652, limits assumed).
T1 construct: also called antigen of the anti-HER2 antibody
Description: SPR (Biacore 8K), as in Example 1. As to the method:
(§1) Affinity of the prepared variants was measured using Biacore (registered trademark) 8K (GE Healthcare) in the same manner as in Example 1.
For orientation: Surface plasmon resonance follows binding to a sensor surface in real time, without labels.
As for B1, the Kd was 0.0208 nM.
Take B2: the Kd stood at 0.00505 nM.
Take B3: binding was characterised by a dissociation constant (Kd) of 0.0338 nM.
Molecule B4 had a Kd of 0.0211 nM. Against the preceding molecule, the Kd is about 1.6-fold lower.
Consider B5, for which binding was put at a Kd of 0.0443 nM.

For another experiment, the target named is T1, HER2. Put plainly: SPR (Biacore 8K), Example 3, as in Example 1. As to the method: as §1
B2 yielded a dissociation constant Kd of 0.0321 nM.
For the molecule B6, the Kd turned out to be 0.0357 nM. The Kd values of the last two molecules are within 1.5-fold of each other.
B7 registered a Kd of 0.0126 nM.

(Values after patent US20220204649A1 (SYSMEX, published 2022).)
